# From the supplement of paper PMC9112550, “Optimization of the antimicrobial peptide Bac7 by deep mutational scanning” (BMC Biology, 2022)
# Tested on: Escherichia coli TOP10
# Experiment: shrunken log2 fold change of peptide-encoding DNA abundance (4.5 h post-induction vs induction); higher = less antimicrobial activity (less host growth inhibition)
# Details: time post-induction: 4.5 h; library: site-saturation at positions 5, 18, 19, 20
# 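Also: peptides expressed intracellularly from a pBAD plasmid library in pooled LB shake-flask culture, induced with 0.3% L-arabinose, DNA abundance read by NGS, three biological replicates, DESeq2 with apeglm shrinkage.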
row,Sequence,shrunken log2 fold change
1,RRIRCRPPRLPRPRPRPRSPPRP,0.636
2,RRIRCRPPRLPRPRPRPRSQPRP,0.0629
3,RRIRCRPPRLPRPRPRPRTFPRP,-0.24
4,RRIRCRPPRLPRPRPRPRTIPRP,-0.154
5,RRIRCRPPRLPRPRPRPRVNPRP,0.0551
6,RRIRCRPPRLPRPRPRPRWLPRP,0.313
7,RRIRCRPPRLPRPRPRPRWWPRP,0.718
8,RRIRCRPPRLPRPRPRPSAAPRP,0.386
9,RRIRCRPPRLPRPRPRPSAFPRP,0.426
10,RRIRCRPPRLPRPRPRPSDFPRP,-0.203
11,RRIRCRPPRLPRPRPRPSDLPRP,-0.0943
12,RRIRCRPPRLPRPRPRPSDPPRP,-0.317
13,RRIRCRPPRLPRPRPRPSEIPRP,-0.321
14,RRIRCRPPRLPRPRPRPSEWPRP,-0.214
15,RRIRCRPPRLPRPRPRPSFCPRP,-0.559
16,RRIRCRPPRLPRPRPRPSGAPRP,0.176
17,RRIRCRPPRLPRPRPRPSGCPRP,-0.221
18,RRIRCRPPRLPRPRPRPSGIPRP,-0.154
19,RRIRCRPPRLPRPRPRPSKAPRP,0.0693
20,RRIRCRPPRLPRPRPRPSKFPRP,-0.17
21,RRIRCRPPRLPRPRPRPSKLPRP,-0.674
22,RRIRCRPPRLPRPRPRPSKSPRP,-0.0548
23,RRIRCRPPRLPRPRPRPSLHPRP,-0.289
24,RRIRCRPPRLPRPRPRPSLMPRP,-0.287
25,RRIRCRPPRLPRPRPRPSLVPRP,-0.399

row,Sequence,shrunken log2 fold change
1,RRIRCRPPRLPRPRPRPSMSPRP,-0.273
2,RRIRCRPPRLPRPRPRPSNAPRP,-0.572
3,RRIRCRPPRLPRPRPRPSNWPRP,0.0114
4,RRIRCRPPRLPRPRPRPSPKPRP,-0.326
5,RRIRCRPPRLPRPRPRPSQKPRP,-0.169
6,RRIRCRPPRLPRPRPRPSQQPRP,-0.0757
7,RRIRCRPPRLPRPRPRPSRSPRP,-0.136
8,RRIRCRPPRLPRPRPRPSSPPRP,-0.461
9,RRIRCRPPRLPRPRPRPSTKPRP,-0.277
10,RRIRCRPPRLPRPRPRPSTYPRP,-0.768
11,RRIRCRPPRLPRPRPRPSVQPRP,-0.579
12,RRIRCRPPRLPRPRPRPSVYPRP,-0.697
13,RRIRCRPPRLPRPRPRPSWIPRP,-0.732
14,RRIRCRPPRLPRPRPRPTCEPRP,0.142
15,RRIRCRPPRLPRPRPRPTDCPRP,0.0318
16,RRIRCRPPRLPRPRPRPTFAPRP,0.359
17,RRIRCRPPRLPRPRPRPTFCPRP,-0.0442
18,RRIRCRPPRLPRPRPRPTFRPRP,0.0981
19,RRIRCRPPRLPRPRPRPTGGPRP,0.561
20,RRIRCRPPRLPRPRPRPTGSPRP,0.0208
21,RRIRCRPPRLPRPRPRPTHIPRP,-0.326
22,RRIRCRPPRLPRPRPRPTHQPRP,0.476
23,RRIRCRPPRLPRPRPRPTIFPRP,-0.626
24,RRIRCRPPRLPRPRPRPTIVPRP,-0.0931
25,RRIRCRPPRLPRPRPRPTKNPRP,0.142

row,Sequence,shrunken log2 fold change
1,RRIRCRPPRLPRPRPRPTLKPRP,0.017
2,RRIRCRPPRLPRPRPRPTNCPRP,-0.282
3,RRIRCRPPRLPRPRPRPTNRPRP,-0.356
4,RRIRCRPPRLPRPRPRPTNVPRP,-0.154
5,RRIRCRPPRLPRPRPRPTPNPRP,0.786
6,RRIRCRPPRLPRPRPRPTPVPRP,0.714
7,RRIRCRPPRLPRPRPRPTQKPRP,0.0827
8,RRIRCRPPRLPRPRPRPTQTPRP,0.286
9,RRIRCRPPRLPRPRPRPTRVPRP,0.547
10,RRIRCRPPRLPRPRPRPTRWPRP,0.284
11,RRIRCRPPRLPRPRPRPTSNPRP,-0.1
12,RRIRCRPPRLPRPRPRPTTHPRP,-0.0573
13,RRIRCRPPRLPRPRPRPTTTPRP,-0.0127
14,RRIRCRPPRLPRPRPRPTVDPRP,0.337
15,RRIRCRPPRLPRPRPRPTWDPRP,0.151
16,RRIRCRPPRLPRPRPRPTYKPRP,-0.267
17,RRIRCRPPRLPRPRPRPTYPPRP,-0.274
18,RRIRCRPPRLPRPRPRPTYYPRP,-0.758
19,RRIRCRPPRLPRPRPRPVAWPRP,0.163
20,RRIRCRPPRLPRPRPRPVCWPRP,0.401
21,RRIRCRPPRLPRPRPRPVDYPRP,-0.258
22,RRIRCRPPRLPRPRPRPVERPRP,0.0133
23,RRIRCRPPRLPRPRPRPVFFPRP,-0.0521
24,RRIRCRPPRLPRPRPRPVFGPRP,-0.0365
25,RRIRCRPPRLPRPRPRPVISPRP,-0.154

row,Sequence,shrunken log2 fold change
1,RRIRCRPPRLPRPRPRPVKLPRP,-0.176
2,RRIRCRPPRLPRPRPRPVKSPRP,0.967
3,RRIRCRPPRLPRPRPRPVKTPRP,-0.132
4,RRIRCRPPRLPRPRPRPVMAPRP,-0.354
5,RRIRCRPPRLPRPRPRPVMNPRP,-0.0483
6,RRIRCRPPRLPRPRPRPVPAPRP,0.457
7,RRIRCRPPRLPRPRPRPVQFPRP,0.13
8,RRIRCRPPRLPRPRPRPVQQPRP,0.148
9,RRIRCRPPRLPRPRPRPVREPRP,0.386
10,RRIRCRPPRLPRPRPRPVSVPRP,-0.0739
11,RRIRCRPPRLPRPRPRPVTAPRP,0.108
12,RRIRCRPPRLPRPRPRPVWKPRP,0.159
13,RRIRCRPPRLPRPRPRPVYFPRP,-0.711
14,RRIRCRPPRLPRPRPRPWAMPRP,-0.226
15,RRIRCRPPRLPRPRPRPWCQPRP,-0.32
16,RRIRCRPPRLPRPRPRPWCSPRP,-0.321
17,RRIRCRPPRLPRPRPRPWDAPRP,-0.758
18,RRIRCRPPRLPRPRPRPWDYPRP,0.00188
19,RRIRCRPPRLPRPRPRPWENPRP,0.0328
20,RRIRCRPPRLPRPRPRPWERPRP,-0.118
21,RRIRCRPPRLPRPRPRPWEYPRP,0.0155
22,RRIRCRPPRLPRPRPRPWFYPRP,-0.758
23,RRIRCRPPRLPRPRPRPWGTPRP,-0.0869
24,RRIRCRPPRLPRPRPRPWHFPRP,-0.422
25,RRIRCRPPRLPRPRPRPWHLPRP,-0.221

row,Sequence,shrunken log2 fold change
1,RRIRCRPPRLPRPRPRPWHQPRP,-0.0304
2,RRIRCRPPRLPRPRPRPWIAPRP,-0.256
3,RRIRCRPPRLPRPRPRPWLVPRP,-0.16
4,RRIRCRPPRLPRPRPRPWMDPRP,-0.169
5,RRIRCRPPRLPRPRPRPWNIPRP,0.0152
6,RRIRCRPPRLPRPRPRPWNYPRP,-0.282
7,RRIRCRPPRLPRPRPRPWPIPRP,-0.369
8,RRIRCRPPRLPRPRPRPWQCPRP,-0.0231
9,RRIRCRPPRLPRPRPRPWQNPRP,-0.124
10,RRIRCRPPRLPRPRPRPWQSPRP,-0.127
11,RRIRCRPPRLPRPRPRPWRLPRP,0.0337
12,RRIRCRPPRLPRPRPRPWRSPRP,-0.0803
13,RRIRCRPPRLPRPRPRPWSCPRP,-0.739
14,RRIRCRPPRLPRPRPRPWVVPRP,-0.168
15,RRIRCRPPRLPRPRPRPWWGPRP,0.0769
16,RRIRCRPPRLPRPRPRPWWTPRP,-0.383
17,RRIRCRPPRLPRPRPRPWYGPRP,-0.49
18,RRIRCRPPRLPRPRPRPWYSPRP,-0.361
19,RRIRCRPPRLPRPRPRPYAAPRP,-0.269
20,RRIRCRPPRLPRPRPRPYAFPRP,-0.425
21,RRIRCRPPRLPRPRPRPYAQPRP,-0.227
22,RRIRCRPPRLPRPRPRPYCKPRP,-0.894
23,RRIRCRPPRLPRPRPRPYCMPRP,-1.09
24,RRIRCRPPRLPRPRPRPYCSPRP,-0.502
25,RRIRCRPPRLPRPRPRPYDTPRP,-0.308

row,Sequence,shrunken log2 fold change
1,RRIRCRPPRLPRPRPRPYERPRP,-0.133
2,RRIRCRPPRLPRPRPRPYESPRP,0.0203
3,RRIRCRPPRLPRPRPRPYETPRP,0.023
4,RRIRCRPPRLPRPRPRPYFCPRP,-0.514
5,RRIRCRPPRLPRPRPRPYFFPRP,-0.614
6,RRIRCRPPRLPRPRPRPYFSPRP,-0.135
7,RRIRCRPPRLPRPRPRPYKDPRP,-0.492
8,RRIRCRPPRLPRPRPRPYKLPRP,-0.898
9,RRIRCRPPRLPRPRPRPYMNPRP,-0.99
10,RRIRCRPPRLPRPRPRPYNDPRP,-0.456
11,RRIRCRPPRLPRPRPRPYNHPRP,-0.416
12,RRIRCRPPRLPRPRPRPYPAPRP,-0.53
13,RRIRCRPPRLPRPRPRPYRDPRP,-0.16
14,RRIRCRPPRLPRPRPRPYREPRP,-0.09
15,RRIRCRPPRLPRPRPRPYRPPRP,-0.352
16,RRIRCRPPRLPRPRPRPYSKPRP,-0.192
17,RRIRCRPPRLPRPRPRPYSLPRP,-0.258
18,RRIRCRPPRLPRPRPRPYSSPRP,0.00688
19,RRIRCRPPRLPRPRPRPYTLPRP,-1.07
20,RRIRCRPPRLPRPRPRPYTQPRP,-1.31
21,RRIRCRPPRLPRPRPRPYYAPRP,-1.1
22,RRIRCRPPRLPRPRPRPYYRPRP,-0.301
23,RRIRDRPPRLPRPRPRPAAIPRP,0.272
24,RRIRDRPPRLPRPRPRPAAPPRP,0.545
25,RRIRDRPPRLPRPRPRPACQPRP,0.0344
